Reference: PMC3976300

Experiments:
Experiment in all cases: intrinsic fluorescence quenching
[1] = tested on: All4779 (Anabaena sp. PCC7120); details: Fluorescence: 20 mM Tris-HCl pH 8, 1 mM EDTA, 20 or 100 mM NaCl, room temperature, EMSA: 20 mM Tris-HCl pH 8, 1 mM MgCl2, 100 mM KCl, 8 mM DTT, 4% sucrose …
[2] = tested on: Alr0088 (Anabaena sp. PCC7120); details: Fluorescence: 20 mM Tris-HCl pH 8, 1 mM EDTA, 20 or 100 mM NaCl, room temperature, EMSA: 20 mM Tris-HCl pH 8, 1 mM MgCl2, 100 mM KCl, 8 mM DTT, 4% sucrose …
[3] = tested on: EcoSSB (Escherichia coli); details: 20 mM NaCl; Fluorescence: 20 mM Tris-HCl pH 8, 1 mM EDTA, 20 or 100 mM NaCl, room temperature; EMSA: 20 mM Tris-HCl pH 8, 1 mM MgCl2, 100 mM KCl, 8 mM DTT, 4% sucrose …
[4] = 20 mM NaCl, reciprocal of poly(dT) concentration at 50% fluorescence

Row | Substance | binding signal ([1]; high NaCl) | binding signal ([2]; high NaCl) | Ka [3] | Ka [1, 4] | Ka [2, 4]
1 | M13 ssDNA | 18 % quenching | 40 % quenching |  |  | 
2 | poly(dT) |  |  | 6.76e+07 M⁻¹ | 5.13e+07 M⁻¹ | 2.56e+06 M⁻¹
